The values below come from article doi:10.1101/2023.07.10.548322.

Holding throughout (assay): SPR
The target in data set [1] is alpha-synuclein (aSyn) WT (human, UniProt P37840 1-140).
The target in data set [2] is aSyn dCterm (UniProt P37840 1-95, del96-140).
In data set [3] the target is aSyn dNAC (UniProt P37840 1-140, del61-95).

Usually Kd stands for the constant that tells how readily two partners part at equilibrium. Low values mean a tighter complex, high ones a looser complex. As for UUAGGGUUAGGGUUAGGGUUAGGG (structured_RNA) [G4tr biotin], in data set [1], the Kd amounted to 3.63 ± 0.63 µM. Also, the binding result in data set [2] and in data set [3] was “binds” throughout.

Regarding UUACCGUUACCGUUACCGUUACCG (ssRNA) [G4mt biotin], in data set [1], the binding result was “no binding”.
